Experimental data taken from the supplement of paper PMC9732359.
± gives the uncertainty stated by the source.

Assay: protein stability index of a GFP-peptide fusion (yeast GPS) (PSI 1-4); higher = more stable; sorted into four equal gates, so the index is relative within each strain
Details: san1∆
Summary of the method: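 Tiled 17-residue yeast protein peptides were fused downstream of GFP in a plasmid that also expresses Cherry, and the pooled library was carried in yeast. Mid-log cultures in leucine-free medium were sorted into four equal gates by GFP/Cherry fluorescence ratio, and plasmids from each gate were PCR-amplified and Illumina-sequenced, with reads assigned to strains by barcodes. The protein stability index for each peptide was each gate's read frequency times its gate number, summed.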

Sequence	protein stability index
VNEPTKNEEAEIEVDEM [RPN1]	3.08 ± 0.14
VNGPNVHPGANYLLKRN [RPO31]	3.26 ± 0.044
VNGRTKSNTIPVTSIPS [GAL11]	2.99 ± 0.077
VNHLLLFAREIAKSQDK [DPB4]	2.76 ± 0.14
VNQDKANNASQITPTVP [SNF12]	3.11 ± 0.063
VNSYRLNPNEYFSVTTA [SWI3]	2.3 ± 0.26
VNYNSDMIKCFLPKLNS [NUT1]	2.06 ± 0.13
VNYRHFKAMEDVIAWKN [ITC1]	3.27 ± 0.077
VPEMIGSVVGIYNGKAF [RPS15]	1.66 ± 0.24
VPHSHPSDMVIPDHLAE [SNF12]	2.22 ± 0.068
VPKHMLDKLDEILYYQI [AAR2]	2.95 ± 0.076
VPSFLRPDITMYCRPAP [GRR1]	2.1 ± 0.057
VPTSIQTKRWPTMYTRL [SIN4]	2.5 ± 0.047
VPVIVKARFVSKLAEEK [RPL28]	2.786 ± 0.018
VPYVLMGQIATFIYFAY [COB]	1.17 ± 0.16
VQDLGSAISVTNVEDPL [SIR2]	2.47 ± 0.13
VQDRGLSAVAQAESMKF [RPS3]	2.73 ± 0.15
VQELLKVLNEISKTTLT [RPN3]	3.17 ± 0.055
VQGSTLAQLTSKLIPEV [RPS1A]	3.01 ± 0.051
VQKQTRAGQRTRFKAVV [RPS2]	3.31 ± 0.15
VQKRDEVKEQLGILKKK [SMC4]	3.24 ± 0.061
VQQQQQQQLRNQIQRQQ [SNF5]	2.07 ± 0.2
VQSGQIYINKSVPTNSA [RET1]	3.35 ± 0.091
VQSKARYTVRTFGIRRN [RPL11A]	1.35 ± 0.11
VQYLRSVQDLGGSATAR [YML031W/NDC1]	1.53 ± 0.22

Sequence	protein stability index
VRAVNTGMEPGKTSFFQ [RPP0]	2.8 ± 0.18
VRDTSPHGISVFLSNLV [BRR2]	2.55 ± 0.078
VRGGNIEIMGILMGFTL [RRI1]	2.31 ± 0.16
VRRGNRKRPVPKGATYG [RPL15A]	3.6 ± 0.18
VRSANEDGTFSVLYPDE [RRP43]	3.18 ± 0.06
VRTRGGNKKYRALRIET [RPS8A]	2.71 ± 0.031
VSALQMLKQHLFKYQGH [PUP1]	2.65 ± 0.059
VSDDESNGEVLEVGKNN [RPN14]	3.07 ± 0.16
VSFRTHNSHLSLNYKFT [SRP21]	3 ± 0.051
VSGDAAALFRLHKFLTK [SWI3]	2.72 ± 0.098
VSLPEGSFKRVKPQYDE [BRR2]	3.13 ± 0.11
VSNENKKNIDYQNRSTR [RRI1]	3.2 ± 0.062
VSNPIRKVFKPSQGMVV [FAS1]	2.87 ± 0.14
VSSKCNDIHLRFMRFLA [ECM29]	2.74 ± 0.18
VSSTIPRETIPFLHLRK [FAS2]	2.79 ± 0.16
VSTAAAATVRSTIRRLR [RPL43A]	2.13 ± 0.1
VSTKMHRTIVIRRAYLH [RPS11A]	1.54 ± 0.087
VSTPEKWDITTRNSNNL [BRR2]	3.26 ± 0.082
VTIREQINIMPSLKAHF [SIR3]	2.85 ± 0.059
VTKEYFQDVYDLTGSEP [FAS1]	1.43 ± 0.18
VTKQSELNSSEDILEDM [SMC1]	3.22 ± 0.041
VTRLFFICSIIQTVVIS [YML031W/NDC1]	1.46 ± 0.076
VTTKDDLSGADIQAMCT [RPT2]	3.28 ± 0.038
VTTNINWRSFNAKIIDA [SRP68]	3.06 ± 0.059
VTYALSGYVRSRGESDD [RPS21A]	3.2 ± 0.16

Sequence	protein stability index
VVAKKDFNQAKHEEIDT [RPS10A]	3.22 ± 0.099
VVDGTVVSCSQHGFEVQ [RPB7]	3.13 ± 0.068
VVDHHVENELLQVDVDI [RRP42]	2.83 ± 0.17
VVDPKTSIEKSSEILSY [YML103C/NUP188]	1.16 ± 0.12
VVDVALKYPELSIKNSF [NUT1]	2.97 ± 0.059
VVEKEKIESLAGGGESD [UBP6]	2.89 ± 0.19
VVIDAKDHLLGRLASTI [RPL16B]	1.17 ± 0.12
VVKASELDQFWQEYSSV [SRP14]	3.14 ± 0.072
VVLYNYYLGQYYGCLEN [CSN12]	2.51 ± 0.11
VVNSNFAKEHNATVNLA [YJR042W/NUP85]	2.75 ± 0.078
VVPNEKADDDSVTIISA [ASC1]	3.05 ± 0.049
VVQDSQTATQLLERGRL [SMC2]	2.81 ± 0.054
VYAFKAKNKSTRINGLN [REC8]	1.77 ± 0.19
WDLLQSGSQNISEFDSF [RPN12]	3.05 ± 0.12
WGGFPLDISVFLLEKAG [TAF14]	3.26 ± 0.06
WIQVFGLRTENVLDYFA [MED6]	2.38 ± 0.14
WKEVLAHNPELERYVKR [RPO31]	3.38 ± 0.1
WKNLVLKLSQAFGSSAT [YJR042W/NUP85]	2.22 ± 0.055
WKYEDVVAKLEDKRKVR [RPL16B]	2.36 ± 0.093
WMMNGALQILNSGIIPG [FAS2]	2.52 ± 0.15
WNLNQFQIEADFIGHNS [ASC1]	2.95 ± 0.076
WNRLTISVTDTEVERAK [COR1]	3.08 ± 0.051
WTEASSSGAGTVKLYLP [ECM29]	2.09 ± 0.067
YAIIINYTKDNEYYPMC [YCS4]	1.61 ± 0.13
YAKEDAFSYPRMYEEAS [RPN2]	1.27 ± 0.11

Sequence	protein stability index
YASKINRAEGPEELARI [RGR1]	3.31 ± 0.067
YAVAEQCPVKSAEDQLY [QCR2]	3.15 ± 0.14
YDEDPYGFEDESAPITA [RPB2]	3.24 ± 0.048
YDGDTVTFSPTGRLFQV [PRE5]	2.94 ± 0.14
YDPKDALKNACNSIINK [RPB11]	3.2 ± 0.084
YEAPRHGHLGFLPRKRA [RPL3]	2.88 ± 0.05
YEDSGSTYKHDRGIANI [SRB4]	3.25 ± 0.097
YEFPIEGIEIYDRKKLP [RPC11]	1.91 ± 0.14
YEMVIREKNALKRLAWQ [ISW2]	2.32 ± 0.048
YEQHIENIEPLDPINLP [PRP8]	2.5 ± 0.1
YFKSILLNKNTGNNLYD [SWI1]	2.04 ± 0.05
YFLRRQYILQIVSFIVN [YJL039C/NUP192]	1.31 ± 0.14
YFRILLPYERHMISQEG [SWI1]	1.5 ± 0.097
YGGDGLDPLEMEGNAQP [RPO31]	3.28 ± 0.07
YGKLRNGMFCQVPSSLI [RRP4]	2.4 ± 0.09
YGRDDMENIKKSIDSKT [ISW2]	3.21 ± 0.062
YHGNECEINYYEILLKI [SRB8]	2.24 ± 0.089
YIDEMYNHNDGGDGRDY [RRI1]	3.3 ± 0.21
YILSLVSIKDSTGCVVG [YMR129W/POM152]	1.92 ± 0.062
YISLLKLQGLYENIPIY [YDL116W/NUP84]	1.59 ± 0.12
YIYSQETKSWINESAEN [MED1]	2.46 ± 0.048
YKDVSDLIRSESMLHLS [IRR1]	2.11 ± 0.093
YKHIDASGSINRKVLQA [RPS19A]	2.49 ± 0.073
YKVDAEGKVTKLRRECS [RPS31]	2.67 ± 0.12
YLCFILSTRAGGLGLNL [SNF2]	2.19 ± 0.12

Same assay, conditions: ubr1∆

Sequence	protein stability index
VNDVEELGEIIDEDIGN [RMP1]	3.19 ± 0.28
VNEPTKNEEAEIEVDEM [RPN1]	3.45 ± 0.16
